# Measurements as given in publication PMC3862839, “From Knock-Out Phenotype to Three-Dimensional Structure of a Promising Antibiotic Target from Streptococcus pneumoniae” (PLoS ONE, 2013).
# B1: Streptococcus pneumoniae dihydrodipicolinate synthase (enzyme, UniProt Q97R25 1-311, looked up)
# chain: MSYQDLKKCKIITAFITPFHEDGSINFDAIPALIEHLLAHHTDGILLAGTTAESPTLTHDEELELFAAVQKVVNGRVPLIAGVGTNDTRDSIEFVKEVAEFGGFAAGLAIVPYYNKPSQEGMYQHFKTIADASDLPIIIYNIPGRVVVELTPETMLRLADHPNIIGVKECTSLANMAYLIEHKPEEFLIYTGEDGDAFHAMNLGADGVISVASHTNGDEMHEMFTAIAESDMKKAAAIQRKFIPKVNALFSYPSPAPVKAILNYMGFEAGPTRLPLVPAPEEDAKRIIKVVVDGDYEATKATVTGVLRPDY
# notes: Dihydrodipicolinate synthase (DHDPS, product of dapA) of Streptococcus pneumoniae; Homotetramer (dimer of 'tight' dimers) in solution and in the crystal; also called Sp-DHDPS; sp-DHDPS
# Experiments:
# [1] = biological target: Ec-DHDPS (dimer) (Escherichia coli) (UniProt P0A6L2); details: cited from earlier work
# purified protein [2] = substrate: CC(=O)C(=O)O; test: purified protein; details: co-substrate (S)-ASA 0-0.48 mM, 250 mM HEPES pH 8.0, 30 °C, 0.2 mM NADPH, 20 nM enzyme, global ping-pong fit without substrate inhibition
# Excerpt: (§1) DHDPS-DHDPR coupled assay, NADPH oxidation on Sp-DHDPS (dihydrodipicolinate synthase)
# purified protein [3] = substrate: N[C@@H](CC=O)C(=O)O; test: purified protein; details: co-substrate pyruvate 0.5-16 mM, 250 mM HEPES pH 8.0, 30 °C, 0.2 mM NADPH, 20 nM enzyme, global ping-pong fit without substrate inhibition
# Excerpt: as §1
# [4] = biological target: the molecule itself; test: AUC; sedimentation equilibrium, 10,000 and 18,000 rpm, 20°C, 20 mM Tris-HCl pH 8.0, 150 mM NaCl; 296, 355 and 740 nM Sp-DHDPS; global fit to a dimer-tetramer model (SEDPHAT); tetramer to dimers
# [5] = biological target: the molecule itself; test: AUC; sedimentation velocity, 40,000 rpm, 20°C, 20 mM Tris-HCl pH 8.0, 150 mM NaCl; Sp-DHDPS at 4.5 µM and at 740 nM; c(s) and c(M) distributions (SEDFIT)
Molecule,Kd [1],Km (purified protein [2]),kcat (purified protein [2]),Km (purified protein [3]),kcat (purified protein [3]),Kd [4],stoichiometry N [5]
Ec-DHDPS (dimer) (from UniProt P0A6L2),76 nM,–,–,–,–,–,–
B1,–,2550 ± 50 µM,22 s⁻¹,44 ± 3 µM,22 s⁻¹,1.7 nM,4
